# Test results reported in patent US10597433B2, “Peptides and combination of peptides for use in immunotherapy against small cell lung cancer and other cancers” (Immatics Biotechnologies GmbH, priority 2015, dated 2020).
# Biological target: HLA-A*02:01 (Homo sapiens, UniProt P04439, D140Y/D185E/D98H/E176V/E277Q/G131W/G231S/I119V/I121R/I166T/I218V/L300P/L318F/N151K/N90K/P208A/P217A/Q86G/Q94H/R138H/R169H/T345S)
# Assay: MHC binding assay: UV-ligand exchange with ELISA detection of β2m of stabilized MHC complexes
# Conditions: binding to HLA-A*02:01
# Description: Candidate peptides for T cell based therapies according to the present invention were further tested for their MHC binding capacity (affinity). The individual peptide-MHC complexes were produced by UV-ligand exchange, where a UV-sensitive peptide is cleaved upon UV-irradiation, and exchanged with the peptide of interest as analyzed. Only peptide candidates that can effectively bind and stabilize the peptide-receptive MHC molecules prevent dissociation of the MHC complexes. To determine the yield of the exchange reaction, an ELISA was performed based on the detection of the light chain (β2m) of stabilized MHC complexes. The assay was performed as generally described in Rodenko et al. (Rodenko et al., 2006).
# 96 well MAXISorp plates (NUNC) were coated over night with 2 μg/ml streptavidin in PBS at room temperature, washed 4× and blocked for 1 h at 37° C. in 2% BSA containing blocking buffer. Refolded HLA-A*02:01/MLA-001 monomers served as standards, covering the range of 15-500 ng/ml. Peptide-MHC monomers of the UV-exchange reaction were diluted 100 fold in blocking buffer. Samples were incubated for 1 h at 37° C., washed four times, incubated with 2 μg/ml HRP conjugated anti-β2m for 1 h at 37° C., washed again and detected with TMB solution that is stopped with […]. Absorption was measured at 450 nm. Candidate peptides that show a high exchange yield (preferably higher than 50%, most preferred higher than 75%) are generally preferred for a generation and production of antibodies or fragments thereof, and/or T cell receptors or fragments thereof, as they show sufficient avidity to the MHC molecules and prevent dissociation of the MHC complexes.
row,"Peptide exchange (MHC class I binding score, peptide exchange yield)",Substance
1,+++ (≥50 = +++),91 (KLQDGVHII; listed as Homo sapiens) [compound 91]
2,+++ (≥50 = +++),97 (ALLDGTVFEI; listed as Homo sapiens) [compound 97]
3,+++ (≥50 = +++),101 (AMNSQILEV; listed as Homo sapiens) [compound 101]
4,+++ (≥50 = +++),114 (ALLEPGGVLTI; listed as Homo sapiens) [compound 114]
5,++++ (≥75% = ++++),99 (QMLEAIKALEV; listed as Homo sapiens) [compound 99]
6,++++ (≥75% = ++++),116 (ALLVRLQEV; listed as Homo sapiens) [compound 116]
7,++++ (≥75% = ++++),108 (ILLDDQFQPKL; listed as Homo sapiens) [compound 108]
8,++++ (≥75% = ++++),106 (KMPDDVWLV; listed as Homo sapiens) [compound 106]
9,+++ (≥50 = +++),125 (LLSEPSLLRTV; listed as Homo sapiens) [compound 125]
10,+++ (≥50 = +++),93 (ALRETVVEV; listed as Homo sapiens) [compound 93]
11,+++ (≥50 = +++),111 (FLPEAPAEL; listed as Homo sapiens) [compound 111]
12,+++ (≥50 = +++),118 (KLPSFLANV; listed as Homo sapiens) [compound 118]
13,+++ (≥50 = +++),124 (SLITDLQTI; listed as Homo sapiens) [compound 124]
14,++++ (≥75% = ++++),107 (AMYGTKLETI; listed as Homo sapiens) [compound 107]
15,+++ (≥50 = +++),94 (ALFPVAEDISL; listed as Homo sapiens) [compound 94]
16,+++ (≥50 = +++),89 (IQHDLIFSL; listed as Homo sapiens) [compound 89]
17,++++ (≥75% = ++++),103 (SLLEYQMLV; listed as Homo sapiens) [compound 103]
18,++++ (≥75% = ++++),105 (SMYDKVLML; listed as Homo sapiens) [compound 105]
19,++++ (≥75% = ++++),102 (ALFARPDLLLL; listed as Homo sapiens) [compound 102]
20,+++ (≥50 = +++),120 (SLAADIPRL; listed as Homo sapiens) [compound 120]
21,+++ (≥50 = +++),112 (LLLPGVIKTV; listed as Homo sapiens) [compound 112]
22,++++ (≥75% = ++++),95 (ALYSKGILL; listed as Homo sapiens) [compound 95]

# More lines, now with the values behind:
row,Substance,"Peptide exchange (MHC class I binding score, peptide exchange yield)"
1,17 (SLMLVTVEL; listed as Homo sapiens) [compound 17],+++ (≥50 = +++)
2,52 (ILASFMLTGV; listed as Homo sapiens) [compound 52],++++ (≥75% = ++++)
3,61 (YQAPYFLTV; listed as Homo sapiens) [compound 61],+++ (≥50 = +++)
4,26 (KMLDEAVFQV; listed as Homo sapiens) [compound 26],++++ (≥75% = ++++)
5,27 (SLDIITITV; listed as Homo sapiens) [compound 27],++++ (≥75% = ++++)
6,7 (GLLGDIAIHL; listed as Homo sapiens) [compound 7],+++ (≥50 = +++)
7,50 (FLLSQIVAL; listed as Homo sapiens) [compound 50],+++ (≥50 = +++)
8,1 (AMLEEVNYI; listed as Homo sapiens) [compound 1],+++ (≥50 = +++)
9,46 (ALWVAVPKA; listed as Homo sapiens) [compound 46],+++ (≥50 = +++)
10,85 (FAYDGKDYLTL; listed as Homo sapiens) [compound 85],+++ (≥50 = +++)
11,75 (SLDLHVPSL; listed as Homo sapiens) [compound 75],+++ (≥50 = +++)
12,28 (ILVSQLEQL; listed as Homo sapiens) [compound 28],++++ (≥75% = ++++)
13,44 (ALIVGIPSV; listed as Homo sapiens) [compound 44],++++ (≥75% = ++++)
14,38 (GLISSLNEI; listed as Homo sapiens) [compound 38],++++ (≥75% = ++++)
15,69 (KLFDRSVDL; listed as Homo sapiens) [compound 69],++ (≥20% = ++)
16,23 (YQIDTVINL; listed as Homo sapiens) [compound 23],+++ (≥50 = +++)
17,71 (FIFEQVQNV; listed as Homo sapiens) [compound 71],+++ (≥50 = +++)
18,64 (VLFHQLQEI; listed as Homo sapiens) [compound 64],+++ (≥50 = +++)
19,66 (YLNLISTSV; listed as Homo sapiens) [compound 66],+++ (≥50 = +++)
20,72 (KAIGSLKEV; listed as Homo sapiens) [compound 72],+++ (≥50 = +++)

row,Substance,"Peptide exchange (MHC class I binding score, peptide exchange yield)"
1,67 (MLYDIVPVV; listed as Homo sapiens) [compound 67],+++ (≥50 = +++)
2,84 (KMFENEFLL; listed as Homo sapiens) [compound 84],+++ (≥50 = +++)
3,19 (VLLTTAVEV; listed as Homo sapiens) [compound 19],+++ (≥50 = +++)
4,48 (SLIGLDLSSV; listed as Homo sapiens) [compound 48],+++ (≥50 = +++)
5,31 (RLLQDPVGV; listed as Homo sapiens) [compound 31],++++ (≥75% = ++++)
6,54 (HLFDIILTSV; listed as Homo sapiens) [compound 54],++++ (≥75% = ++++)
7,49 (RLALNTPKV; listed as Homo sapiens) [compound 49],++ (≥20% = ++)
8,40 (GLLEVQVEV; listed as Homo sapiens) [compound 40],+++ (≥50 = +++)
9,83 (KLLEIDIDGV; listed as Homo sapiens) [compound 83],+++ (≥50 = +++)
10,55 (LLIADNPQL; listed as Homo sapiens) [compound 55],++++ (≥75% = ++++)
11,70 (TLLWKLVEV; listed as Homo sapiens) [compound 70],++ (≥20% = ++)
12,45 (SLSGEIILHSV; listed as Homo sapiens) [compound 45],++ (≥20% = ++)
13,22 (LLPEKSWEI; listed as Homo sapiens) [compound 22],+++ (≥50 = +++)
14,42 (GLLEDERALQL; listed as Homo sapiens) [compound 42],+++ (≥50 = +++)
15,20 (MLDEILLQL; listed as Homo sapiens) [compound 20],+++ (≥50 = +++)
16,81 (LLAEIGAVTLV; listed as Homo sapiens) [compound 81],+++ (≥50 = +++)
17,9 (AAAPGEALHTA; listed as Homo sapiens) [compound 9],++ (≥20% = ++)
18,63 (LLMSTENEL; listed as Homo sapiens) [compound 63],+++ (≥50 = +++)
19,21 (TMEEMIFEV; listed as Homo sapiens) [compound 21],+++ (≥50 = +++)
20,57 (VLIGDVLVAV; listed as Homo sapiens) [compound 57],++++ (≥75% = ++++)
